Data on 1 molecule can be found in patent US20070190054A1 (published 2007).

A word on the Kd: it is the free concentration of one partner at which half of the binding sites on the other are occupied at equilibrium, for simple one-to-one binding.

This assay deals with T1, C3b (purified; species not stated in Examples 12, 13, 19, 20) (Homo sapiens (Human), UniProt P01024 23-667; P01024 749-1663, The two chains are disulfide-linked. The internal thioester of the alpha' chain (Cys-Gln) is broken in C3b. Natural glycosylation is present. The protein carries an Alexa488 label in the …).
T1 construct: also called complement C3b; C3b-A488
Description: SPR (Biacore 2000), C3b amine-coupled to a CM5 chip, CRIg-Fc injected. In general terms: In SPR one partner is held on a chip, and binding of the other changes the refractive index at the surface.

B1: murine CRIg-Fc fusion protein (Fc fusion)
chain: HPTLKTPESVTGTWKGDVKIQCIYDPLRGYRQVLVKWLVRHGSDSVTIFLRDSTGDHIQQAKYRGRLKVSHKVPGDVSLQINTLQMDDRNHYTCEVTWQTPDGNQVIRDKIIELRVRKYNPPRINTEAPTTLHSSLEATTIMSSTSDLTTNGTGKLEETIAGSGRNLPIFAIIFIISLCCI
notes: Produced in CHO cells; also called muCRIg-Fc; MuCRIg Fc; not shown: hinge, CH2 and CH3 domains of murine IgG1
Regarding B1, binding was put at a Kd of 250 nM.
